As a reminder, the Kd is the constant that tells how readily two partners part at equilibrium. A lower Kd goes with a tighter complex.

This data set has as its target PrP (prion protein) (UniProt P04156). As to the kind of experiment: EMSA. The note with it: PrP form and source not stated. In general terms: A gel shift assay detects complexes by their altered migration in electrophoresis.

“GGGAGACAAGACUAGACGCUCAACUACGAACUCAUGACACAAGGAUGCAAUCUCAUCCCG [B-end (PrPSc binding region)]” returned an equilibrium dissociation constant (Kd) of 0.0443 µM.
